Numbering of substitutions follows the chain as printed. Numbers in names are those of the source.
T1: CD25 protein (from Example 2)
T1 chain: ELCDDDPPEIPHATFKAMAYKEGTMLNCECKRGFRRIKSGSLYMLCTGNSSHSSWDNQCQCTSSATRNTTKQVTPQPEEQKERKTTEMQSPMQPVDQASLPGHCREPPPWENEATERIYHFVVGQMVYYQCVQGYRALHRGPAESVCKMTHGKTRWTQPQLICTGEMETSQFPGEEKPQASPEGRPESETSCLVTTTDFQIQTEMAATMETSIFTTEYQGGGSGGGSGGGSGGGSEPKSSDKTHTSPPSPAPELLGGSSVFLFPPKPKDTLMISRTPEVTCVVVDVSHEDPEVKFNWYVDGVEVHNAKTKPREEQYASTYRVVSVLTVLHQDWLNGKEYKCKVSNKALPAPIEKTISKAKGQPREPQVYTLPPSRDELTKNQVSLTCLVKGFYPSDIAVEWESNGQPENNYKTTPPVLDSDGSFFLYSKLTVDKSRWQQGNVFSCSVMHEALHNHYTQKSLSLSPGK

T2: CD25 on the surface of NK92 cells (human NK cell line) (human, UniProt P01589 22-272)
T2 sequence (looked up): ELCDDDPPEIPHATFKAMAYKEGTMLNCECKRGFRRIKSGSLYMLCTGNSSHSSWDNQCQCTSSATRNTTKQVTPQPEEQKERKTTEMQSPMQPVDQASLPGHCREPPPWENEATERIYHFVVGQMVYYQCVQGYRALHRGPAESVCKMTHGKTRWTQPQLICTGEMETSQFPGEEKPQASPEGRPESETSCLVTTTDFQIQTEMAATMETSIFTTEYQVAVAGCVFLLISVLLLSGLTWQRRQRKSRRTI

T3: CD25 on the surface of CTLL-2 cells (mouse cytotoxic T lymphocyte cell line) (mouse) (UniProt P01590)
T3 sequence (looked up): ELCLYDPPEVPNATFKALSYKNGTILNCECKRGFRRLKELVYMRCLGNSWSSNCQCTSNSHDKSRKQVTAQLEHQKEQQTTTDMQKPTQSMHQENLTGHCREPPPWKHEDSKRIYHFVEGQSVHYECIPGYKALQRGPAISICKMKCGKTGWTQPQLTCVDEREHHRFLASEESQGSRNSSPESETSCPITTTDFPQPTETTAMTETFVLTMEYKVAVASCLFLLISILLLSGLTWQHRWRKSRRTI

T4: CD25 on the surface of CTLL-2 cells (mouse cytotoxic T lymphocyte cell line) (mouse, UniProt P01590 22-268)
T4 sequence (looked up): T3 sequence (looked up)

B1: IL-2gm6 (T3A, M39N, K49N, A73T, D109N), HIS tag (ligand)
chain: APASSSTKKTQLQLEHLLLDLQMILNGINNYKNPKLTRNLTFKFYMPKNATELKHLQCLEEELKPLEEVLNLTQSKNFHLRPRDLISNINVIVLELKGSETTFMCEYANETATIVEFLNRWITFAQSIISTLTHHHHHH
notes: Expressed in Expi293F cells; also called IL-2gm6-His
B2: IL-2gm11 (T3A, K49N, D109N), HIS tag (ligand)
chain: B1 chain with N39M, T73A
notes: Expressed in Expi293F cells; also called IL-2gm11-His
B3: IL-2gm13 (T3A, K49N, A73T, D109N), HIS tag (ligand)
chain: B1 chain with N39M
notes: Expressed in Expi293F cells; also called IL-2gm13-His
B4: IL-2gm9 (T3A, M39N, A73T), HIS tag (ligand)
chain: B1 chain with N49K, N109D
notes: Expressed in Expi293F cells; also called IL-2gm9-His
B5: IL-2gm10 (T3A, M39N, D109N), HIS tag (ligand)
chain: B1 chain with N49K, T73A
notes: Expressed in Expi293F cells; also called IL-2gm10-His
B6: IL-2gm14 (T3A, M39N, A73T, D109N), HIS tag (ligand)
chain: B1 chain with N49K
notes: Expressed in Expi293F cells; also called IL-2gm14-His
B7: IL-2gm2 (T3A, K49N), HIS tag (ligand)
chain: B1 chain with N39M, T73A, N109D
notes: Expressed in Expi293F cells; also called IL-2gm2-His
B8: IL-2gm1 (T3A, M39N), HIS tag (ligand)
chain: B1 chain with N49K, T73A, N109D
notes: Expressed in Expi293F cells with a leader peptide; M39N is meant to make an N-glycosylation site; also called IL-2gm1-His
B9: IL-2gm15 (T3A, M39N, K49N, D109N), HIS tag (ligand)
chain: B1 chain with T73A
notes: Expressed in Expi293F cells; also called IL-2gm15-His
B10: IL-2gm3 (T3A, A73T) or (T3A, A73S), HIS tag (ligand)
chain: B1 chain with N39M, N49K, N109D
notes: also called IL-2gm3-His
B11: IL-2gm12 (T3A, A73T, D109N), HIS tag (ligand)
chain: B1 chain with N39M, N49K
notes: Expressed in Expi293F cells; also called IL-2gm12-His
B12: IL-2gm5 (T3A, M39N, K49N, A73T), HIS tag (ligand)
chain: B1 chain with N109D
notes: Expressed in Expi293F cells; also called IL-2gm5-His
B13: IL-2gm8 (T3A, M39N, K49N), HIS tag (ligand)
chain: B1 chain with T73A, N109D
notes: Expressed in Expi293F cells; also called IL-2gm8-His
B14: IL-2gm7 (T3A, D109N), HIS tag (ligand)
chain: B1 chain with N39M, N49K, T73A
notes: Expressed in Expi293F cells; also called IL-2gm7-His
B15: IL-2gm4 (T3A, K49N, A73T), HIS tag (ligand)
chain: B1 chain with N39M, N109D
notes: Expressed in Expi293F cells; also called IL-2gm4-His
B16: IL-2gm4 (T3A, K49N, A73T), IgG1-Fc tag (Fc fusion)
chain: APASSSTKKTQLQLEHLLLDLQMILNGINNYKNPKLTRMLTFKFYMPKNATELKHLQCLEEELKPLEEVLNLTQSKNFHLRPRDLISNINVIVLELKGSETTFMCEYADETATIVEFLNRWITFAQSIISTLTGGGSGGGSGGGSGGGSEPKSSDKTHTSPPSPAPELEGGSSVFLFPPKPKDTLMISRTPEVTCVVVDVSHEDPEVKFNWYVDGVEVHNAKTKPREEQYASTYRVVSVLTVLHQDWLNGKAYACAVSNKALPAPIEKTISKAKGQPREPQVYTLPPSREEMTKNQVSLTCLVKGFYPSDIAVEWESNGQPENNYKTTPPVLDSDGSFFLYSKLTVDKSRWQQGNVFSCSVMHEALHNHYTQKSLSLSPGK

Target: T1, CD25 protein (from Example 2)
Test: ELISA on coated CD25, sample at 0.2 ug/ml, relative to rhIL-2 = 100%
Method: (§1) CD25 (from Example 2) was coated on a 96-well high adsorption microtiter plate (3590, Costar), washed and blocked. The sample to be tested was diluted to an appropriate concentration and added to wells.

Binding activity (%) | Binder
1.08 | B1
5.03 | B2
1.18 | B3
1.18 | B4
1.08 | B5
0.99 | B6
31.3 | B7
1.08 | B8
0.99 | B9
5.62 | B10
1.48 | B11
1.08 | B12
0.99 | B13
2.96 | B14
7.5 | B15

Target: T1, CD25 protein (from Example 2)
Test: ELISA on coated CD25
Method: as §1

binding result | Binder
no binding (tested: 1 ug/ml) | B1
no binding (tested: 1 ug/ml) | B4
no binding (tested: 1 ug/ml) | B5
no binding (tested: 1 ug/ml) | B6
no binding (tested: 1 ug/ml) | B8
no binding (tested: 1 ug/ml) | B9
no binding (tested: 1 ug/ml) | B12
no binding (tested: 1 ug/ml) | B13

Target: T1, CD25 protein (from Example 2)
Test: ELISA on coated CD25, sample at 1 ug/ml, relative to rhIL-2 = 100%
Method: as §1

Binding activity (%) | Binder
0.88 | B1
12.5 | B2
2.23 | B3
0.88 | B4
0.88 | B5
0.74 | B6
31 | B7
0.88 | B8
0.68 | B9
10.3 | B10
2.77 | B11
0.88 | B12
0.74 | B13
8.1 | B14
14.8 | B15

The binders below were run against T2, CD25 on the surface of NK92 cells … (assay: cell-based or functional assay).

EC50 (nM), NK92 cell proliferation [nM] | Potency relative to rhIL-2 (%), NK92 cell proliferation [%] | Binder
7.08 | 0.027 | B1
0.28 | 0.69 | B2
0.293 | 0.661 | B3
1.07 | 0.181 | B4
12.7 | 0.015 | B5
23.2 | 0.008 | B6
0.112 | 1.72 | B7
38.5 | 0.005 | B8
7.76 | 0.025 | B9
2.21 | 0.088 | B10
0.296 | 0.653 | B11
20.7 | 0.009 | B12
8.91 | 0.022 | B13
0.557 | 0.347 | B14
0.234 | 0.828 | B15

Target: T1, CD25 protein (from Example 2)
Test: ELISA on coated CD25, sample at 0.04 ug/ml, relative to rhIL-2 = 100%
Method: as §1

Binding activity (%) | Binder
1.36 | B1
2.42 | B2
1.51 | B3
1.51 | B4
1.51 | B5
1.51 | B6
16.6 | B7
1.66 | B8
1.36 | B9
2.27 | B10
1.97 | B11
1.51 | B12
1.51 | B13
1.82 | B14
3.18 | B15

Each binder was assayed against CD25 on the surface of NK92 cells (human NK cell line) (human) (UniProt P01589) (assay: cell-based or functional assay).

EC50 (nM), NK92 cell proliferation [nM] | Potency relative to rhIL-2 (%), NK92 cell proliferation [%] | Binder
0.0152 | 34.8 | B16

What follows are binders tested against T3, CD25 on the surface of CTLL-2 cells (mouse cytotoxic T lymphocyte cell line) (mouse) (assay: cell-based or functional assay).

Binder | EC50 (nM), CTLL-2 cell proliferation [nM] | Potency relative to rhIL-2 (%), CTLL-2 cell proliferation [%]
B16 | 0.00919 | 31.5

Each binder was assayed against T4, CD25 on the surface of CTLL-2 cells … (assay: cell-based or functional assay).

Binder | EC50 (nM), CTLL-2 cell proliferation [nM] | Potency relative to rhIL-2 (%), CTLL-2 cell proliferation [%]
B1 | 51.5 | 0.006
B2 | 0.0349 | 8.31
B3 | 0.144 | 2.01
B4 | 2.38 | 0.122
B5 | 15.6 | 0.019
B6 | 47.9 | 0.006
B7 | 0.0638 | 4.55
B8 | 83.4 | 0.003
B9 | 16.5 | 0.018
B10 | 0.165 | 1.76
B11 | 0.156 | 1.86
B12 | 8.22 | 0.035
B13 | 8.84 | 0.033
B14 | 0.365 | 0.794
B15 | 0.0906 | 3.2

— patent US20220227829A1 (SHANGHAI GP BIOTECH, published 2022)
